Values of other authors, collected in publication PMC3121883.
Where two headings read alike, the source gives them in different places.

Assays:
[1] = target: Connexin43 C-terminal peptide (UniProt P17302); assay: fluorescence
[2] = target: Connexin43 C-terminal peptide (UniProt P17302); assay: fluorescence; remark: listed apart in the source

UniProt P17302, sequence (P17302 whole entry, looked up, tested part not stated): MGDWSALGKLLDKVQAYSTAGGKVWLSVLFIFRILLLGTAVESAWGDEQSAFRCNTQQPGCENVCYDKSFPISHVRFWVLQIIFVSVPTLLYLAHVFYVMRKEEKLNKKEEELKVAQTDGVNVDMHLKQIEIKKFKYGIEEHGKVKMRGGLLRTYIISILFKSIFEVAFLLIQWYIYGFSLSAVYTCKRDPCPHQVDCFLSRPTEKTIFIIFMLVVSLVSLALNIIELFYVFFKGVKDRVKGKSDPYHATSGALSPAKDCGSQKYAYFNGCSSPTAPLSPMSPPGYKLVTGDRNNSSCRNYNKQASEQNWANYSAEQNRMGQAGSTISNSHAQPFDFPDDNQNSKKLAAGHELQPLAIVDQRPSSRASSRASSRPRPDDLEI

Kd [1]: 7.2 µM
Kd [2]: > 100 µM
Substance: ZO-1 PDZ2 (from UniProt Q07157)
